B1: Fab234 (WT) (Fab, V domains shown)
VH: EVQLVESGGGLVKPGGSLRLSCAASGFNFSTHIMNWVRQAPGKGLEWVSSISSSGTYIYYADSMKGRFTISRDNPKNSLYLQMNSLRAEDTAVYYCARARGFIQFHYYMDVWGKGTTVAVSS
VL: SYVLTQPPSVSVAPGKTARITCGGNNIGSKSVHWHQQRPGQAPVLVVYDDKIRPSGIPERFSGSNSGNTATLIISRVEAGDEADYYCQVWHSSSDPVVFGGGTKLTVL
B2: 5J8 Fab (WT) (Fab, V domains shown)
VH: EVQLVESGPGLVKPSDILSLTCAVSGYSISSNYYWGWIRQPPGKGLEWIGSIYHSGSTYYKPSLESRLGISVDTSKNQFSLKLSFVSAADTAVYYCARHVRSGYPDTAYYFDKWGQGTLVTVSS
VL: SYVLTQPPSVSVAPGETARISCGGNNIGTKVLHWYQQTPGQAPVLVVYDDSDRPSGIPERFSGSNSGNTATLTISRVEVGDEADYYCQVWDISTDQAVFGGGTKLTVL
notes: source: ExpiCHO cells, transiently co-transfected, purified (CaptureSelect CH1-XL)

What was measured:
[1] = molecular target: T1, biotinylated C-terminal αTSR domain of P. falciparum circumsporozoite protein (P. falciparum, UniProt Q7K740); experiment: BLI; conditions: both partners purified
T1 construct: also called P. falciparum CSP
T1 sequence (Q7K740 310-375): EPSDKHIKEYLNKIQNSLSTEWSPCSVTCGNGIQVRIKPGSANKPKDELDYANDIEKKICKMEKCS

[2] = molecular target: biotinylated influenza hemagglutinin (HA) from H1N1 A/California/07/2009 (Influenza A virus A/California/07/2009 …, UniProt C3W5X2, strain, biotinylated); experiment: BLI; conditions: both partners purified

| Binder | binding result [1] | binding result [2] |
| --- | --- | --- |
| B1 | binds |  |
| B2 |  | binds |

Source: PMC10636607 (Cell Reports, 2023)
